Patent US20200038523A1 (TECHNISCHE UNIVERSIT T M NCHEN, published 2020)

Biological target: T1, rhPSMA, extracellular part of human prostate-specific membrane antigen (residues 44-750) with native … (human, UniProt Q04609 44-750)
T1 construct: range 44-750; Secreted from Schneider S2 insect cells, glycosylated; also called wild-type rhPSMA; rhGCPII
Assay: ELISA: rhPSMA coated on MaxiSorp plate, Anticalin dilution series, detection via Strep-tag II with StrepTactin/AP, absorbance at 405 nm
Text: Binding activities of Anticalins selected from the original nave library (A) or resulting from subsequent affinity maturation of the A3 variant (B) were compared in an ELISA. A 96-well MaxiSorp plate was coated with rhPSMA (or ovalbumin as a negative control, not shown) and purified Anticalin variants were applied in dilution series. Anticalin binding was detected using StrepTactin/AP conjugate, followed by chromogenic reaction. Absorption was plotted against the Anticalin concentration and data were analyzed by curve fitting. Binding curves for the best performing clones A3 and A3A5 are shown as solid lines. (CE) SPR sensograms measured for Anticalins A3, A3A5 and A3A5.1 on a BIAcore 2000 instrument. […]
50 μL of rhPSMA (5 μg/mL in TBS) was directly adsorbed onto the surface of a MaxiSorp 96-well plate overnight at 4° C. […] The plates were washed three times and bound Anticalins were detected with StrepTactin-AP as described further above. The data were analyzed using Prism 5 software (GraphPad) and absorption values (A) were fitted according to the formula ΔA=Aₘₐₓ[Lₜₒₜ]/(KD+[Lₜₒₜ]) with the concentration of the applied lipocalin variant [Lₜₒₜ] and the dissociation constant KD.
Specific binding activities of selected Anticalins toward rhPSMA as well as apparent affinity constants were initially determined by ELISA in 96-well Maxisorp plates coated with the recombinant wild-type PSMA protein. […]

T1 sequence (Q04609 44-750 limits assumed): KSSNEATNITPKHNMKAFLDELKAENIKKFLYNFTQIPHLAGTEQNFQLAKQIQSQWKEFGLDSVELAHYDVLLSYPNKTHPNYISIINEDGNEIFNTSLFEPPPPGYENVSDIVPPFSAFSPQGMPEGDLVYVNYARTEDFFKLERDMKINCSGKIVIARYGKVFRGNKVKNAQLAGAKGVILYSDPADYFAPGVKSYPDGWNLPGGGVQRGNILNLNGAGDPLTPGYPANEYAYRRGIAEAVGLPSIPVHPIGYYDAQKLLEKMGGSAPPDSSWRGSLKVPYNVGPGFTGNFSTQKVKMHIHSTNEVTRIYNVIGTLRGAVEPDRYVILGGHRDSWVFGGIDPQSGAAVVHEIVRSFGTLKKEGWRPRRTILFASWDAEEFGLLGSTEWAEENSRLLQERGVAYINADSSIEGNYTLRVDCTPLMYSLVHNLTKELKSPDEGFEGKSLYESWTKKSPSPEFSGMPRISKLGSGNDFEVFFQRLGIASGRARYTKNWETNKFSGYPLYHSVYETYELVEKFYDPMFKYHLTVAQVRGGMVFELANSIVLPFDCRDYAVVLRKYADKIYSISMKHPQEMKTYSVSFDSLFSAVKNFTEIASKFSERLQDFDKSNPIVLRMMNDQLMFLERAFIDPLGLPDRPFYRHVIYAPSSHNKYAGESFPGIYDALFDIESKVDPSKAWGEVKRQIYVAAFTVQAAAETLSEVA

Row | EC50 (read off the curve) [nM] | Binder
1 | ~10 | Anticalin candidate A2 (designed binder, not shown: C-terminal Strep-tag II) QDSTSDLIPAPPLSKVPLQQNFQDNQFHGKWYVVGRAGNKPLREDKDPLKMWATIYELKEDKSYNVTIVWFDFKKCWYRISTFVPGSQPGEFTLGRIKSAPGVTSGLVRVVSTNYNQHAMVFFKYVFQNREWFHITLYGRTKELTSELKENFIRFSKSLGLPENHIVFPVPIDQCIDG
2 | ~6 | Anticalin candidate H5 (designed binder, not shown: C-terminal Strep-tag II) QDSTSDLIPAPPLSKVPLQQNFQDNQFHGKWYVVGTAGNWPLREDKDPHKMSATIYELKEDKSYNVTNVQFSSKKCLYFIGTFVPGSQPGEFTLGPIKSAPGQTSGLVRVVSTNYNQHAMVFFKQVIQNREAFIITLYGRTKELTSELKENFIRFSKSLGLPENHIVFPVPIDQCIDG
